# Measured values published in US8987201B2, “Black bear parathyroid hormone and methods of using black bear parathyroid hormone” (Michigan Technological University, priority 2009, dated 2015).
# Marks after values point to notes of the source that are not given here. No end group written: not given here.
# Assays:
# [1] = test system: rats; conditions: long-term usage; cited from earlier work
# [2] = Serum calcium levels in the rat OVX dose response study; type: in vivo; conditions: OVX rats; not significant at the p<0.05 level
# Description: Ninety female, 3-month old Sprague-Dawley rats were obtained. Eighty (80) of the rats were ovariectomized (OVX) and ten (10) underwent a sham OVX procedure (sham OVX) in which the ovaries were left in the animal. The OVX animals were randomly assigned into groups of ten for further experiments.
# Following the actual or sham OVX procedure, all animals were untreated for 6 weeks to allow bone loss. After the 6 week period of bone loss, groups of animals were injected for a six- or eight-week period (daily for five days per week) with vehicle (saline) or 3, 10, or 30 μg/kg bear or human PTH1-34. […] The sham OVX group as well as one group of actual OVX rats were euthanized at six weeks while the remaining animals were euthanized at fourteen weeks following the OVX procedure. Samples were obtained from the euthanized animals for further analysis.
# [3] = test system: ovariectomized rats; conditions: cited from earlier work
# [4] = test system: Male Swiss-Webster mice; experiment: Cortical bone mineral content (ash fraction) and geometrical properties of the femur; type: in vivo, mouse; conditions: femoral midshaft, 2.5 nmol/kg s.c., 8 weeks, normalized by body mass, SD in parentheses
# Excerpt: (§1) All handling procedures and experiments were approved by the Michigan Technological University Institutional Animal Care and Use Committees. Male Swiss-Webster mice were obtained from a commercial breeder (Harlan, Indianapolis, Ind.). All animals were maintained on a 12-h light/12-h dark cycle, and were permitted free access to water and food containing 0.95% calcium (Purina Rodent Diet #5001).
# (§2) In the first experiment, 11 wk old mice received daily (5 days/week) subcutaneous injections of 2.5 nmol/kg PTH 1-34 (hPTH 1-34 or bbPTH 1-34) or acidic saline vehicle (0.15 M NaCl+0.001 N HCl) for 8 weeks (n=10 mice/group). In the second experiment, 12 wk old mice received daily (5 days/week) subcutaneous injections of 2.5 nmol/kg PTH 1-84 (hPTH 1-84 or bbPTH 1-84) or acidic saline vehicle for 8 weeks (n=10 mice/group). All PTH- and vehicle-treated animals received subcutaneous injections of calcein at a dosage of 10 mg/kg on days 12 and 3 before death to label mineralizing bone surfaces. Twenty-four hours following the last treatment injection, mice were sacrificed by carbon dioxide asphyxiation. Right femurs were fixed in 10% neutral buffered formalin. Left femurs were wrapped in 0.15M saline soaked gauze and stored at −20 deg C. Left tibias were stored in 70% ethanol at 4 deg C.
# (§3) Following the bending test, the left femoral diaphyses were ashed in a furnace to determine mineral content (ash fraction). Right femoral diaphyses were embedded in methyl methacrylate and sectioned with a diamond saw to expose the midshaft cross-section. Images of the midshaft cross-sections were captured using a digital camera (Spot Insight QE, Diagnostic Instruments Inc., Sterling Heights, Mich.), and Scion Image analysis software (Scion Corporation, Frederick, Md.) was used to calculate the periosteal area (Ps.Ar), cortical area (Ct.Ar), and endosteal area (Es.Ar) for each sample. Cortical bone thickness (Ct.Th) was calculated in 0.1 mm increments for each anatomical quadrant and for the entire cross-section using image analysis software (Bioquant Osteo, Nashville, Tenn.). Thin sections from the midshaft of the right femur were ground to a thickness of 50 μm and mounted on glass slides. Images of calcein labels were captured at 100× magnification and periosteal and endosteal mineral apposition rates (Ps.MAR and Es.MAR, respectively) and mineralizing surfaces (Ps.MS/BS and Es.MS/MS) were quantified (Bioquant) for each femur.
# (§4) All bone geometrical, architectural, and mineral properties were normalized by body mass to account for potential variation in animal size (31-33). Trabecular bone properties quantified by micro-computed tomography were compared by ANOVA between vehicle, bear, and human PTH-treated mice within each study (PTH 1-34 or PTH 1-84). The microCT parameters were not directly compared between the PTH 1-34 and PTH 1-84 studies because analyses were conducted on different microCT machines. For all other bone properties, all six experimental groups (from both the PTH 1-34 and PTH 1-84 studies) were compared with ANOVA and Fisher's PLSD. A significance of p<0.05 was used for all comparisons.
# [5] = test system: Male Swiss-Webster mice; experiment: Trabecular bone structure and mineralization in the proximal tibia (micro-computed tomography); type: in vivo, mouse; conditions: 8 weeks
# Excerpt: as §1, §2
# Trabecular bone architecture and mineralization were evaluated in the left proximal tibial metaphysis (0.7 mm distal to the growth plate) using micro-computed tomography. Tibias from experiment 1 were scanned on a μCT35 scanner (Scanco Medical AG, Basserdorf, Switzerland) at 3.5 μm (high) resolution. Tibias from experiment 2 were scanned on a μCT40 scanner (Scanco Medical AG, Basserdorf, Switzerland) at 7 μm (high) resolution. Bones were scanned in 70% ethanol. Trabecular bone volume fraction (BV/TV, %), trabecular number (Tb.N, mm^−1), trabecular thickness (Tb.Th, m), trabecular separation (Tb.Sp, m), trabecular apparent mineral density (App.Mn.Dn, mgHA/cm^3) and trabecular tissue mineral density (Mat.Mn.Dn, mgHA/cm^3) were computed using the manufacturer's software.
# as §4
# [6] = test system: ovariectomized (OVX) Sprague-Dawley rats; experiment: In vivo effects of human PTH1-84 and bear PTH1-84 in ovariectomized rats; parameters: species or system rat; conditions: 2.5 nmol/kg s.c., eight weeks
# Description: Thirty female, 2.5-month old Sprague-Dawley rats were ovariectomized (OVX) at the commercial breeding facility The OVX animals were randomly assigned into 3 groups of 10 animals per group for further experiments.
# Six weeks after the OVX procedure, the rats were injected subcutaneously for an eight-week period (daily for five days per week) with vehicle (saline) or 2.5 nmol/kg bear or human PTH1-84. Animals were euthanized 24 hours after the last injection. Samples were obtained from the euthanized animals for further analysis.
# Femur bending strength and proximal tibia trabecular architecture were investigated as described in Example 12.
# [7] = test system: Male Swiss-Webster mice; experiment: Cortical bone mechanical properties of the femur (3-point bending); type: in vivo, mouse; conditions: 2.5 nmol/kg, 8 weeks
# Excerpt: as §1
# In the first experiment, 11 wk old mice received daily (5 days/week) subcutaneous injections of 2.5 nmol/kg PTH 1-34 (hPTH 1-34 or bbPTH 1-34) or acidic saline vehicle (0.15 M NaCl+0.001 N HCl) for 8 weeks (n=10 mice/group). In the second experiment, 12 wk old mice received daily (5 days/week) subcutaneous injections of 2.5 nmol/kg PTH 1-84 (hPTH 1-84 or bbPTH 1-84) or acidic saline vehicle for 8 weeks (n=10 mice/group). […]
# Left femurs were loaded to failure in 3-point bending on an Instron mechanical testing system (Model #8872, Canton, Mass.) at a rate of 1 mm/min. […] Ultimate load was calculated using the load-deformation data from testing.
# All bone geometrical, architectural, and mineral properties were normalized by body mass to account for potential variation in animal size (31-33). Trabecular bone properties quantified by micro-computed tomography were compared by ANOVA between vehicle, bear, and human PTH-treated mice within each study (PTH 1-34 or PTH 1-84). […]
# [8] = test system: human fetal osteoblasts (hFOB); experiment: Serum starvation cell death in human fetal osteoblasts (trypan blue); type: cell-based; conditions: 100 nM for 1 hour before serum starvation for 24 hours, preliminary studies, p<0.0001
# Description: All PTH peptides used in the current study attenuated apoptotic signaling induced by serum starvation in vitro (FIG. 19). bbPTH 1-34 reduced apoptotic signaling in pre-osteoblastic cells more than human PTH (FIG. 19). Recently, we found similar results with preliminary studies in human fetal osteoblasts (hFOB). Serum starvation for 24 hours increased cell death in hFOB (confirmed via trypan blue staining), but pretreatment of hFOB cells with 100 nM PTH 1-34 or 1-84 for 1 hour before starvation reduced percent cell death (percentage change in cell death compared to vehicle pretreatment, hPTH 1-34: −18%, bbPTH 1-34: −25%, hPTH 1-84: −17%, bbPTH 1-84: −21%; p<0.0001; data not shown). […] However, although bbPTH 1-84 was less anti-apoptotic than bbPTH 1-34 and hPTH 1-34 in vitro (FIG. 19) it caused the greatest increases in cortical and trabecular bone mass in the in vivo studies (Table 1, Table 2).
# [9] = test system: Male Swiss-Webster mice; experiment: Cortical bone dynamic histomorphometry in the femur (calcein labels); type: in vivo, mouse; conditions: femoral midshaft, 2.5 nmol/kg s.c., 8 weeks, SD in parentheses
# Excerpt: as §1, §2, §3, §4
# [10] = PTH 1-84 study: 12 wk old mice, 2.5 nmol/kg s.c., proximal tibia, normalized by body mass
molecule,measurement,setting,value
CC[C@H](C)[C@H](NC(=O)[C@H](CCC(=O)O)NC(=O)[C@H](CO)NC(=O)[C@@H](NC(=O)[C@@H](N)CO)C(C)C)C(=O)N[C@@H](CCC(N)=O)C(=O)N[C@@H](CC(C)C)C(=O)N[C@@H](CCSC)C(=O)N[C@@H](Cc1cnc[nH]1)C(=O)N[C@@H](CC(N)=O)C(=O)N[C@@H](CC(C)C)C(=O)NCC(=O)N[C@@H](CCCCN)C(=O)N[C@@H](Cc1cnc[nH]1)C(=O)N[C@@H](CC(C)C)C(=O)N[C@@H](CC(N)=O)C(=O)N[C@@H](CO)C(=O)N[C@@H](CCSC)C(=O)N[C@@H](CCC(=O)O)C(=O)N[C@@H](CCCN=C(N)N)C(=O)N[C@H](C(=O)N[C@@H](CCC(=O)O)C(=O)N[C@@H](Cc1c[nH]c2ccccc12)C(=O)N[C@@H](CC(C)C)C(=O)N[C@@H](CCCN=C(N)N)C(=O)N[C@@H](CCCCN)C(=O)N[C@@H](CCCCN)C(=O)N[C@@H](CC(C)C)C(=O)N[C@@H](CCC(N)=O)C(=O)N[C@@H](CC(=O)O)C(=O)N[C@H](C(=O)N[C@@H](Cc1cnc[nH]1)C(=O)N[C@@H](CC(N)=O)C(=O)N[C@@H](Cc1ccccc1)C(=O)O)C(C)C)C(C)C [LY333334],osteosarcoma in rats,[1],generates osteosarcoma
"SVSEIQFMHNLGKHLSSMERVEWLRKKLQDVHNF [bbPTH 1-34, black bear PTH 1-34]",serum calcium levels compared to human PTH1-34,[2],lower
"bovine PTH 1-34 (AVSEIQFMHNLGKHLSSMERVEWLRKKLQDVHNF; Parathyroid hormone; UniProt P01268 32-65, looked up, fragment) [1-34 fragment of bovine PTH]",greater bone formation response than to rat PTH 1-34,[3]; daily 25 μg injections,25%
same,greater increase in bone volume fraction during treatment,[3]; injection,37%
"black bear PTH1-84 (protein, listed as Ursus americanus) SVSEIQFMHNLGKHLSSMERVEWLRKKLQDVHNFVALGAPTAHRDGGSQRPQKKEDNVLVENHQKSLGEADKADVDVLTKAKSQ",Ct.Ar,[4],31.7 (3.7) mm^2/kg
same,Ct.Th,[4],3.56 (0.42)^a mm/kg
same,Es.Ar,[4],26.6 (4.6) mm^2/kg
same,Ps.Ar,[4],"58.3 (5.0)^a,b mm^2/kg"
same,BV/TV,"[5]; PTH 1-84 study: 12 wk old mice, 2.5 nmol/kg s.c. daily 5 days/week, proximal tibia, normalized by body mass",2.26 %/kg
same,App. Mn. Dn,[5]; [10],3665 mgHA/(cm^3*kg)
same,Mat. Mn. Dn.,[5]; [10],30552 mgHA/(cm^3*kg)
same,Tb. N,[5]; [10],113.8 1/mm*kg
same,Tb. Sp,[5]; [10],8.47 mm/kg
same,Tb. Th,[5]; [10],1.38 mm/kg
same,trabecular apparent mineral density compared to other treatments,"[5]; mice, 2.5 nmol/kg, bbPTH 1-84 vs hPTH 1-84 p=0.019",highest
same,trabecular bone volume fraction and apparent mineral density over vehicle treatment,"[5]; mice, 2.5 nmol/kg, only this peptide",significantly increased over vehicle treatment
same,bone volume fraction in the proximal tibia compared to hPTH 1-84,"[5]; mice, 2.5 nmol/kg, p=0.013",greater
same,bone volume fraction / trabecular bone volume,[6],equivalently increase
same,increases in cortical bone strength compared to hPTH1-84,[6],greater increases
same,ultimate load of the femur compared to vehicle treatment,[6],significantly (p=0.013) increased
same,"increase in bone strength (ultimate load of the femur), bear peptide compared to the corresponding human peptide",[7],significantly (p=0.032) greater
same,increase of femoral ultimate load over vehicle treatment,[7]; only for this peptide,statistically significant
same,percentage change in cell death compared to vehicle pretreatment,[8],−21%
same,Endosteal MAR,[9],0.59 (0.42)
same,Endosteal MS/BS,[9],24.5 (17.2)
same,Periosteal MAR,[9],0.62 (0.33)
same,Periosteal MS/BS,[9],31.3 (22.5)
